The values below come from the supplement of paper PMC5998384.

Data set [1] deals with HeLa Kyoto. Put plainly: melting temperature (median over replicates), in situ; higher = more thermally stable.
In data set [2] the test system is HeLa Kyoto. Put plainly: thermal stability score vs G1/S (z-score of summed log2 fold changes over temperatures); higher = more thermally stable than in G1/S.
In data set [3] the test system is HeLa Kyoto. Put plainly: solubility in G1/S (NP-40 vs SDS abundance) (log2 ratio); higher = more soluble. The note with it: cell cycle stage: G1/S.
Data set [4] concerns HeLa Kyoto. Put plainly: solubility change mitosis vs G1/S (difference of NP-40 vs SDS log2 ratios) (log2 ratio difference); higher = more soluble in mitosis.
The mark [5] stands for this setting: cell cycle stage: early G1 (4.5 h after nocodazole release).
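For melting temperature (median over replicates), in situ in this document: HeLa Kyoto cells synchronized by double thymidine or nocodazole block, proteins quantified by TMT10plex mass spectrometry, three independent biological replicates.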
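For solubility change mitosis vs G1/S (difference of NP-40 vs SDS log2 ratios) in this document: synchronized HeLa Kyoto cells (double thymidine block for G1/S, nocodazole release for mitosis), protein amounts in NP-40 versus SDS lysates quantified by mass spectrometry, three biological replicates.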
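For solubility in G1/S (NP-40 vs SDS abundance) in this document: HeLa Kyoto cells arrested at G1/S by double thymidine block, proteins quantified by TMT10plex mass spectrometry in mild NP-40 versus SDS extracts, three biological replicates.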
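For thermal stability score vs G1/S (z-score of summed log2 fold changes over temperatures) in this document: synchronized HeLa Kyoto cells, proteins quantified by TMT10plex mass spectrometry, three biological replicates, mitosis taken 0.5 h after nocodazole release, G1/S directly after double thymidine block.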

Consider “MFEEKASSPSGKMGGEEKPIGAGEEKQKEGGKKKNKEGSGDGGRAELNPWPEYIYTRLEMYNILKAEHDSILAEKAEKDSKPIKVTLPDGKQVDAESWKTTPYQIACGISQGLADNTVIAKVNNVVWDLDRPLEEDCTLELLKFEDEEAQAVYWHSSAHIMGEAMERVYGGCLCYGPPIENGFYYDMYLEEGGVSSNDFSSLEALCKKIIKEKQAFERLEVKKETLLAMFKYNKFKCRILNEKVNTPTTTVYRCGPLIDLCRGPHVRHTGKIKALKIHKNSSTYWEGKADMETLQRIYGISFPDPKMLKEWEKFQEEAKNRDHRKIGRDQELYFFHELSPGSCFFLPKGAYIYNALIEFIRSEYRKRGFQEVVTPNIFNSRLWMTSGHWQHYSENMFSFEVEKELFALKPMNCPGHCLMFDHRPRSWRELPLRLADFGVLHRNELSGALTGLTRVRRFQQDDAHIFCAMEQIEDEIKGCLDFLRTVYSVFGFSFKLNLSTRPEKFLGDIEVWDQAEKQLENSLNEFGEKWELNSGDGAFYGPKIDIQIKDAIGRYHQCATIQLDFQLPIRFNLTYVSHDGDDKKRPVIVHRAILGSVERMIAILTENYGGKWPFWLSPRQVMVVPVGPTCDEYAQKVRQQFHDAKFMADIDLDPGCTLNKKIRNAQLAQYNFILVVGEKEKISGTVNIRTRDNKVHGERTISETIERLQQLKEFRSKQAEEEF [TARS]”, for which the melting temperature in the data set with HeLa Kyoto [1] (cell cycle stage: G1/S) was found to be 51.9 °C; in the data set with HeLa Kyoto [1] (cell cycle stage: mitosis), 51.6 °C. The thermal stability score in the data set with HeLa Kyoto [2] (setting [5]) was 0.00611; in the data set with HeLa Kyoto [2] (cell cycle stage: mitosis), -0.985. For the same sequence, in the data set with HeLa Kyoto [3], the “solubility in G1/S (log2)” value was -0.0551. In the data set on HeLa Kyoto [4], the “solubility change mitosis (log2)” value is -0.144.

In the case of “MFGKRKKRVEISAPSNFEHRVHTGFDQHEQKFTGLPRQWQSLIEESARRPKPLVDPACITSIQPGAPKTIVRGSKGAKDGALTLLLDEFENMSVTRSNSLRRDSPPPPARARQENGMPEEPATTARGGPGKAGSRGRFAGHSEAGGGSGDRRRAGPEKRPKSSREGSGGPQESSRDKRPLSGPDVGTPQPAGLASGAKLAAGRPFNTYPRADTDHPSRGAQGEPHDVAPNGPSAGGLAIPQSSSSSSRPPTRARGAPSPGVLGPHASEPQLAPPACTPAAPAVPGPPGPRSPQREPQRVSHEQFRAALQLVVDPGDPRSYLDNFIKIGEGSTGIVCIATVRSSGKLVAVKKMDLRKQQRRELLFNEVVIMRDYQHENVVEMYNSYLVGDELWVVMEFLEGGALTDIVTHTRMNEEQIAAVCLAVLQALSVLHAQGVIHRDIKSDSILLTHDGRVKLSDFGFCAQVSKEVPRRKSLVGTPYWMAPELISRLPYGPEVDIWSLGIMVIEMVDGEPPYFNEPPLKAMKMIRDNLPPRLKNLHKVSPSLKGFLDRLLVRDPAQRATAAELLKHPFLAKAGPPASIVPLMRQNRTR [PAK4]”, the melting temperature turned out to be 51.3 °C in the data set with HeLa Kyoto [1] (cell cycle stage: G1/S) and 50.5 °C in the data set on HeLa Kyoto [1] (cell cycle stage: mitosis). Besides, the thermal stability score in the data set with HeLa Kyoto [2] (setting [5]) is 0.186; in the data set with HeLa Kyoto [2] (cell cycle stage: mitosis) it was 0.111. Moreover, the “solubility in G1/S (log2)” value in the data set with HeLa Kyoto [3] worked out at 0.0713. Moreover, the “solubility change mitosis (log2)” value with HeLa Kyoto [4] is -0.000436.

Consider “MFKKFDEKENVSNCIQLKTSVIKGIKNQLIEQFPGIEPWLNQIMPKKDPVKIVRCHEHIEILTVNGELLFFRQREGPFYPTLRLLHKYPFILPHQQVDKGAIKFVLSGANIMCPGLTSPGAKLYPAAVDTIVAIMAEGKQHALCVGVMKMSAEDIEKVNKGIGIENIHYLNDGLWHMKTYK [MCTS1]”, for which the melting temperature in the data set on HeLa Kyoto [1] (cell cycle stage: G1/S) was determined as 54.8 °C; with HeLa Kyoto [1] (cell cycle stage: mitosis), 54.5 °C. The values for the thermal stability score in the data set on HeLa Kyoto [2] (setting [5]) and in the data set with HeLa Kyoto [2] (cell cycle stage: mitosis) were -1.29 and -1.6, respectively. Also, the “solubility in G1/S (log2)” value with HeLa Kyoto [3] stood at 0.267. Further, the “solubility change mitosis (log2)” value in the data set with HeLa Kyoto [4] was -0.0597.

Turning to “MFLVGLTGGIASGKSSVIQVFQQLGCAVIDVDVMARHVVQPGYPAHRRIVEVFGTEVLLENGDINRKVLGDLIFNQPDRRQLLNAITHPEIRKEMMKETFKYFLRGYRYVILDIPLLFETKKLLKYMKHTVVVYCDRDTQLARLMRRNSLNRKDAEARINAQLPLTDKARMARHVLDNSGEWSVTKRQVILLHTELERSLEYLPLRFGVLTGLAAIASLLYLLTHYLLPYA [DCAKD]”, the melting temperature with HeLa Kyoto [1] (cell cycle stage: G1/S) came to 51.7 °C; in the data set on HeLa Kyoto [1] (cell cycle stage: mitosis), 50.9 °C. For the same sequence, the thermal stability score with HeLa Kyoto [2] (setting [5]) was -0.154; in the data set on HeLa Kyoto [2] (cell cycle stage: mitosis), 0.0944. Besides, in the data set on HeLa Kyoto [3], the “solubility in G1/S (log2)” value is -0.0828. Also, in the data set on HeLa Kyoto [4], the “solubility change mitosis (log2)” value was -0.182.

Take “MFRAAAPGQLRRAASLLRFQSTLVIAEHANDSLAPITLNTITAATRLGGEVSCLVAGTKCDKVAQDLCKVAGIAKVLVAQHDVYKGLLPEELTPLILATQKQFNYTHICAGASAFGKNLLPRVAAKLEVAPISDIIAIKSPDTFVRTIYAGNALCTVKCDEKVKVFSVRGTSFDAAATSGGSASSEKASSTSPVEISEWLDQKLTKSDRPELTGAKVVVSGGRGLKSGENFKLLYDLADQLHAAVGASRAAVDAGFVPNDMQVGQTGKIVAPELYIAVGISGAIQHLAGMKDSKTIVAINKDPEAPIFQVADYGIVADLFKVVPEMTEILKKK [ETFA]”: the melting temperature with HeLa Kyoto [1] (cell cycle stage: G1/S) was found to be 54.1 °C; in the data set on HeLa Kyoto [1] (cell cycle stage: mitosis), 53.6 °C. The results for the thermal stability score with HeLa Kyoto [2] (setting [5]) and in the data set with HeLa Kyoto [2] (cell cycle stage: mitosis) were -3.45 and -1.76, respectively. Besides, the “solubility in G1/S (log2)” value with HeLa Kyoto [3] was determined as 0.455. The “solubility change mitosis (log2)” value in the data set with HeLa Kyoto [4] was -0.02.
